Source: publication PMC2154361

Molecular target: RIM1α C2B domain
Assay: AUC

## RIM1α C2B domain (domain or fragment)
  Kd: 90 µM
  stoichiometry N: 2
